Ends that are not written are not given here.
Target: T1, FLAG-FBXL12-FL (full length) (human, UniProt Q9NXK8 1-326)
T1 sequence (looked up): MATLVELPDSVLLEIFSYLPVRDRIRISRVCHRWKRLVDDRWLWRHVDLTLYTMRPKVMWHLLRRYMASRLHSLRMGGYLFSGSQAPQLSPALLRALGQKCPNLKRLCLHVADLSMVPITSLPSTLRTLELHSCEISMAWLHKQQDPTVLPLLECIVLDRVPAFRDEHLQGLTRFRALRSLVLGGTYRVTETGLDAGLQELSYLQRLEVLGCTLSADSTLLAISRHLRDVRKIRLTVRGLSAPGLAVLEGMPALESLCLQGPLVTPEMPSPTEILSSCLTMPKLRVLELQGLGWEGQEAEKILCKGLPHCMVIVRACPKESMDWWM
Experiment: pull-down

binding result: binds
Binder: MVSKRRLSKSEDKE (also: phosphorylated by CHK1, residues not given here) [FANCD2 N-terminal peptide WT, phosphorylated by CHK1]
